Results reported in patent US20220265759A1 (BOARD OF TRUSTEES OF THE UNIVERSITY OF ILLIOIS, published 2022).

T1: mouse eNOS (mouse, UniProt P70313 2-1202)
T1 construct: whole, on cells; Endogenous protein in mouse wound homogenates used for Co-IP; also called eNOS (mouse wounds)
T1 sequence (looked up): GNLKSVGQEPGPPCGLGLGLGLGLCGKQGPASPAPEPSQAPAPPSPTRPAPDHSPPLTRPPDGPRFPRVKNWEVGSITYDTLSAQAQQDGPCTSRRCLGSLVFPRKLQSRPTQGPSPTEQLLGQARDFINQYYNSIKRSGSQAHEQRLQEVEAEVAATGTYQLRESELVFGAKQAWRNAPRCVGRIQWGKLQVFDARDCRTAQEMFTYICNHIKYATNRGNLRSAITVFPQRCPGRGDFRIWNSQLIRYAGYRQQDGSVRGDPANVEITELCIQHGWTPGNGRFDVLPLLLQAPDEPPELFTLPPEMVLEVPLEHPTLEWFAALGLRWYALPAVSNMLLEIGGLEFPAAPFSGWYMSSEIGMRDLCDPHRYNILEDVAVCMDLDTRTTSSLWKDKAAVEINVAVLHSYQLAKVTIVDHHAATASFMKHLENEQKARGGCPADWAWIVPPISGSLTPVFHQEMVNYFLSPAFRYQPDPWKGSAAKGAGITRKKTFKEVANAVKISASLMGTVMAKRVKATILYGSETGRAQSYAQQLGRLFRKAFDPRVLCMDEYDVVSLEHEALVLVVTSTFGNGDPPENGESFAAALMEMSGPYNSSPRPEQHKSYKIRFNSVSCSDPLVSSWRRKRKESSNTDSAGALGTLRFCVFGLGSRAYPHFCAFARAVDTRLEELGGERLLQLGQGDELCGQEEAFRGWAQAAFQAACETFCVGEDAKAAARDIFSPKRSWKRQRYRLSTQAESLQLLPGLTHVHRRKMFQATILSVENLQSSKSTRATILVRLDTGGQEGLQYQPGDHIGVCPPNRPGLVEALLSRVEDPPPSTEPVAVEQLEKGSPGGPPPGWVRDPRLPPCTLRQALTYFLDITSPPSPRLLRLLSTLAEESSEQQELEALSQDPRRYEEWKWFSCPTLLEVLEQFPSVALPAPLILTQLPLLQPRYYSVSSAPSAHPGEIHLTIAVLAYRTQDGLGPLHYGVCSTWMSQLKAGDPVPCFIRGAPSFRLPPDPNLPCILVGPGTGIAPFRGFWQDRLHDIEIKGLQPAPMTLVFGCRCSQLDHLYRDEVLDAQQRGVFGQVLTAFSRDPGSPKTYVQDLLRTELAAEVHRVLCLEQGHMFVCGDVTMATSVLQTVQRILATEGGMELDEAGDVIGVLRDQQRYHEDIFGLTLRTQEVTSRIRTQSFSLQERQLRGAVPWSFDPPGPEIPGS


Assays:
calmodulin (CaM) = calmodulin (CaM) (human, UniProt P0DP23 2-149); experiment: Co-IP in endothelial cells; not affected by Myr-CBD7 pretreatment
mouse eNOS = target: T1, mouse eNOS; experiment: Co-IP from mouse wounds (FIG. 4)

Row | binding result (calmodulin (CaM)) | binding result (mouse eNOS) | Binder
1 | binds | – | human endothelial nitric oxide synthase (eNOS) (enzyme, whole, on cells; Endogenous intracellular / membrane-associated protein of human endothelial cells; co-immunoprecipitated from lysates) GNLKSVAQEPGPPCGLGLGLGLGLCGKQGPATPAPEPSRAPASLLPPAPEHSPPSSPLTQPPEGPKFPRVKNWEVGSITYDTLSAQAQQDGPCTPRRCLGSLVFPRKLQGRPSPGPPAPEQLLSQARDFINQYYSSIKRSGSQAHEQRLQEVEAEVAATGTYQLRESELVFGAKQAWRNAPRCVGRIQWGKLQVFDARDCRSAQEMFTYICNHIKYATNRGNLRSAITVFPQRCPGRGDFRIWNSQLVRYAGYRQQDGSVRGDPANVEITELCIQHGWTPGNGRFDVLPLLLQAPDDPPELFLLPPELVLEVPLEHPTLEWFAALGLRWYALPAVSNMLLEIGGLEFPAAPFSGWYMSTEIGTRNLCDPHRYNILEDVAVCMDLDTRTTSSLWKDKAAVEINVAVLHSYQLAKVTIVDHHAATASFMKHLENEQKARGGCPADWAWIVPPISGSLTPVFHQEMVNYFLSPAFRYQPDPWKGSAAKGTGITRKKTFKEVANAVKISASLMGTVMAKRVKATILYGSETGRAQSYAQQLGRLFRKAFDPRVLCMDEYDVVSLEHETLVLVVTSTFGNGDPPENGESFAAALMEMSGPYNSSPRPEQHKSYKIRFNSISCSDPLVSSWRRKRKESSNTDSAGALGTLRFCVFGLGSRAYPHFCAFARAVDTRLEELGGERLLQLGQGDELCGQEEAFRGWAQAAFQAACETFCVGEDAKAAARDIFSPKRSWKRQRYRLSAQAEGLQLLPGLIHVHRRKMFQATIRSVENLQSSKSTRATILVRLDTGGQEGLQYQPGDHIGVCPPNRPGLVEALLSRVEDPPAPTEPVAVEQLEKGSPGGPPPGWVRDPRLPPCTLRQALTFFLDITSPPSPQLLRLLSTLAEEPREQQELEALSQDPRRYEEWKWFRCPTLLEVLEQFPSVALPAPLLLTQLPLLQPRYYSVSSAPSTHPGEIHLTVAVLAYRTQDGLGPLHYGVCSTWLSQLKPGDPVPCFIRGAPSFRLPPDPSLPCILVGPGTGIAPFRGFWQERLHDIESKGLQPTPMTLVFGCRCSQLDHLYRDEVQNAQQRGVFGRVLTAFSREPDNPKTYVQDILRTELAAEVHRVLCLERGHMFVCGDVTMATNVLQTVQRILATEGDMELDEAGDVIGVLRDQQRYHEDIFGLTLRTQEVTSRIRTQSFSLQERQLRGAVPWAFDPPGSDTNSP
2 | – | binds | mouse CCR10 (receptor, UniProt Q9JL21 1-362, looked up, whole, on cells; Endogenous protein in mouse wound homogenates used for Co-IP; also called CCR10 (mouse wounds)) MGTKPTEQVSWGLYSGYDEEAYSVGPLPELCYKADVQAFSRAFQPSVSLMVAVLGLAGNGLVLATHLAARRTTRSPTSVHLLQLALADLLLALTLPFAAAGALQGWNLGSTTCRAISGLYSASFHAGFLFLACISADRYVAIARALPAGQRPSTPSRAHLVSVFVWLLSLFLALPALLFSRDGPREGQRRCRLIFPESLTQTVKGASAVAQVVLGFALPLGVMAACYALLGRTLLAARGPERRRALRVVVALVVAFVVLQLPYSLALLLDTADLLAARERSCSSSKRKDLALLVTGGLTLVRCSLNPVLYAFLGLRFRRDLRRLLQGGGCSPKPNPRGRCPRRLRLSSCSAPTETHSLSWDN
